Target: F-actin (skeletal muscle actin) (Oryctolagus cuniculus, UniProt P68135)
Assay: actin co-sedimentation assay

- Kd: 7.5 µM
B1: Alpha-actinin-2 19-266 (protein)
chain: YMIQEEEWDRDLLLDPAWEKQQRKTFTAWCNSHLRKAGTQIENIEEDFRNGLKLMLLLEVISGERLPKPDRGKMRFHKIANVNKALDYIASKGVKLVSIGAEEIVDGNVKMTLGMIWTIILRFAIQDISVEETSAKEGLLLWCQRKTAPYRNVNIQNFHTSWKDGLGLCALIHRHRPDLIDYSKLNKDDPIGNINLAMEIAEKHLDIPKMLDAEDIVNTPKPDERAIMTYVSCFYHAFAGAEQAETAA

From publication PMC4980809 (2016)
